Substrate: Nc1ncnc2c1ncn2[C@@H]1O[C@H](COP(=O)(O)OP(=O)(O)OP(=O)(O)O)[C@@H](O)[C@H]1O
Test: malachite green phosphate release NTPase assay
Format: biochemical, Zika virus
Settings: no curcumin, 1% DMSO, 80 nM enzyme, Tris pH 7.4, 25 °C

B1: ZIKV NS3 helicase (Zika virus) (protein)
chain: PVECFEPSMLKKKQLTVLDLHPGAGKTRRVLPEIVREAIKKRLRTVILAPTRVVAAEMEEALRGLPVRYMTTAVNVTHSGTEIVDLMCHATFTSRLLQPIRVPNYNLNIMDEAHFTDPSSIAARGYISTRVEMGEAAAIFMTATPPGTRDAFPDSNSPIMDTEVEVPERAWSSGFDWVTDHSGKTVWFVPSVRNGNEIAACLTKAGKRVIQLSRKTFETEFQKTKNQEWDFVITTDISEMGANFKADRVIDSRRCLKPVILDGERVILAGPMPVTHASAAQRRGRIGRNPNKPGDEYMYGGGCAETDEGHAHWLEARMLLDNIYLQDGLIASLYRPEADKVAAIEGEFKLRTEQRKTFVELMKRGDLPVWLAYQVASAGITYTDRRWCFDGTTNNTIMEDSVPAEVWTKYGEKRVLKPRWMDARVCSDHAALKSFKEFAAGKR
Which Km does the source give for B1 here?
Its Km is 336.3 ± 61.97 µM.

What about the kcat of the same protein?
The kcat was 1.025 ± 0.06 s⁻¹.
